In patent publication US20220372154A1 (APEXIGEN, published 2022):

Columns and labels:
[1] = biological target: T1, human TNFR2 expressed on cells (human, UniProt P20333 23-461); test: blocking of biotinylated TNF-α on TNFR2-CHO cells, flow cytometry
T1 construct: whole, on cells; also called hTNFR2 (cell); CHO-TNFR2
T1 sequence (looked up): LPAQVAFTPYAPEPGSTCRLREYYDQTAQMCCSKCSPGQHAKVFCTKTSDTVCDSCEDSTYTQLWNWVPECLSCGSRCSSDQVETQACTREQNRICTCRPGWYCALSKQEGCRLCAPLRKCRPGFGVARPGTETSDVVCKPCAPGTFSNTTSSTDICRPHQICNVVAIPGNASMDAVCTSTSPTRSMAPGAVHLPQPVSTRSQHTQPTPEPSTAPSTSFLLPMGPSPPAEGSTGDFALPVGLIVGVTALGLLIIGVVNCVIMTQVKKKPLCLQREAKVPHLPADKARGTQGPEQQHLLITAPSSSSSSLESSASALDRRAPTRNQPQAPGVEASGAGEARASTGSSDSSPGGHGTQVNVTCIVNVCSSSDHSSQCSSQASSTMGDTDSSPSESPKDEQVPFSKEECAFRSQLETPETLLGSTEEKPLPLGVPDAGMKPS
Procedure: TNFR2-overexpressing CHO cells were plated at 100,000 cells per well. Cells were incubated with the indicated antibodies for 30 minutes on ice. […] Cells were analyzed using Cytoflex or MACSQuant flow cytometer. Assay was repeated twice.

[2] = biological target: T2, cynomolgus TNFR2-His tagged protein (cynomolgus, UniProt A0A2K5VET2 132-366); test: ELISA, cynomolgus TNFR2
T2 construct: also called Cyno TNFR2; cynomolgus TNFR2 protein; not shown: His tag
T2 sequence: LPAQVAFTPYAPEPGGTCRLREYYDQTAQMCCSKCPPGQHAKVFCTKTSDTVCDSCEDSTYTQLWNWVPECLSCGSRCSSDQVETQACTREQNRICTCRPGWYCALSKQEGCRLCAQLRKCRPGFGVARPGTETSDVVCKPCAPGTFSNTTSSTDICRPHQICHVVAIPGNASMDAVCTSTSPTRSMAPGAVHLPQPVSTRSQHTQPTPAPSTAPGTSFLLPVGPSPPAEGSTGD

[3] = biological target: CD40 (UniProt P25942 21-193, limits assumed); test: ELISA on coated CD40, OD 650 nm
Sequence of CD40 (P25942 21-193 limits assumed): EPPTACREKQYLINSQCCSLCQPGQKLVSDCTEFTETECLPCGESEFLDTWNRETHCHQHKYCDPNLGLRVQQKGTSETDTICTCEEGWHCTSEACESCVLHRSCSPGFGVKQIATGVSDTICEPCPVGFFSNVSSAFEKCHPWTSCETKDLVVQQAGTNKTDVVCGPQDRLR
Procedure: (§1) To test binding to TNFR family members, target proteins were coated on ELISA plates at 1 μg/mL at 4° C. overnight. Plates were washed, blocked, and antibodies were added at indicated concentrations for 1 hour at RT. Positive control antibodies for each protein were used at ˜1 ug/mL. Antibodies were washed and detected with anti-human IgG HRP for 1 hour. Assay was developed using TMB substrate for 10 minutes. For cell-binding, human CD4+ T cells purified from buffy coats were cultured in flat-bottom plates with anti-CD3/CD28 for 24 hours. Cells were harvested and stained for viability, CD4, CD25 and FOXP3. Test antibody staining was detected using anti-human IgG APC. Binding titration of test antibodies was evaluated on CD4+CD25hiFOXP3+ regulatory T cells and plotted as percent binding.

[4] = biological target: T3, TNFR-Fc (UniProt P20333 23-257, limits assumed); test: TNF-α blocking ELISA (soluble)
T3 construct: Printed only as TNFR-Fc; not shown: Fc part
T3 sequence (looked up): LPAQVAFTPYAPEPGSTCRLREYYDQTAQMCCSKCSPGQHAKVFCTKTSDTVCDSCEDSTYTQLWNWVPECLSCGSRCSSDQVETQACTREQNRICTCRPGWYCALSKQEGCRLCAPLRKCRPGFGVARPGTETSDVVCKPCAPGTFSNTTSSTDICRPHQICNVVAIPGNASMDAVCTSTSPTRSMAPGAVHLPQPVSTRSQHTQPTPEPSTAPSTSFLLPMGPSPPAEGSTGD

[5] = biological target: T4, human TNFR2-His tagged protein (soluble) (human, UniProt P20333 23-257); test: ELISA on coated hTNFR2-His, OD 450 nm
T4 construct: also called hTNFR2 (soluble); soluble TNFR2-His; not shown: His tag
T4 sequence (looked up): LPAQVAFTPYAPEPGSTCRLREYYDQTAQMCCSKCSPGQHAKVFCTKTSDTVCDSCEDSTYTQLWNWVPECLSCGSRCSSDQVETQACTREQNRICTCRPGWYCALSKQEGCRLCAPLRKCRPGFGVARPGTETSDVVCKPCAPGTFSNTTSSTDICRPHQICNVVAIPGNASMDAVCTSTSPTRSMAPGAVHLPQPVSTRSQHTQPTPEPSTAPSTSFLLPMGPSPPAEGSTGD

[6] = biological target: T4, human TNFR2-His tagged protein (soluble); test: ELISA, soluble human TNFR2
[7] = biological target: T5, osteoprotegerin (OPG) (UniProt O00300 22-401, limits assumed); test: ELISA on coated OPG, OD 650 nm
T5 sequence (looked up): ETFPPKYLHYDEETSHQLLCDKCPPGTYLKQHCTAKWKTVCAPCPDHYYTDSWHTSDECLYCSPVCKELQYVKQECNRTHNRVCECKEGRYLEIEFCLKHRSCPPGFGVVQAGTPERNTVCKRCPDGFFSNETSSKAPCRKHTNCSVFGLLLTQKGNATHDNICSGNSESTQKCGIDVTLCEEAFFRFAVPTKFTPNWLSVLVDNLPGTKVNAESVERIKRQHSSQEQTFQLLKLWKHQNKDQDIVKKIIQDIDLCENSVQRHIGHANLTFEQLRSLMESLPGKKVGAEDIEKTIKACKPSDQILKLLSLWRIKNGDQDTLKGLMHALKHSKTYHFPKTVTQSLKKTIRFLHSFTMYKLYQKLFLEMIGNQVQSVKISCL
Procedure: as §1

[8] = biological target: T6, human TNFR1-His tagged protein (human, UniProt P19438 30-211, limits assumed); test: ELISA on coated TNFR1, OD 450 nm
T6 construct: also called soluble human TNFR1; not shown: His tag
T6 sequence (looked up): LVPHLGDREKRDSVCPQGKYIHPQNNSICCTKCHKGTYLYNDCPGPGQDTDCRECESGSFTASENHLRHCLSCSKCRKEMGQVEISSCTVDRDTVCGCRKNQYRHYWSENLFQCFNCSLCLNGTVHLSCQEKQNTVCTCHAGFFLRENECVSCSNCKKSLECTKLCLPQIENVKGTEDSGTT
Procedure: as §1

[9] = biological target: T1, human TNFR2 expressed on cells; test: flow cytometry, cell-expressed human TNFR2
[10] = biological target: T1, human TNFR2 expressed on cells; test: flow cytometry on cells expressing human TNFR2, MFI median
[11] = biological target: T1, human TNFR2 expressed on cells; test: cell-based or functional assay
[12] = biological target: T7, herpesvirus entry mediator (HVEM) (UniProt Q92956 39-202, limits assumed); test: ELISA on coated HVEM, OD 650 nm
T7 sequence (looked up): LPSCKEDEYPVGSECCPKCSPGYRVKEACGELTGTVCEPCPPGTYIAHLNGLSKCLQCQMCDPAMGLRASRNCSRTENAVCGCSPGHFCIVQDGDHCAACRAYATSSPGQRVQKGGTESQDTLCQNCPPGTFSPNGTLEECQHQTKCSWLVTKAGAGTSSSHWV
Procedure: as §1

[13] = biological target: T8, TNFR2 (as used in the Octet measurement) (UniProt P20333 23-257, limits assumed); test: Octet (BLI), monovalent binding
T8 construct: Probably human soluble TNFR2; the legend says only TNFR2
T8 sequence (looked up): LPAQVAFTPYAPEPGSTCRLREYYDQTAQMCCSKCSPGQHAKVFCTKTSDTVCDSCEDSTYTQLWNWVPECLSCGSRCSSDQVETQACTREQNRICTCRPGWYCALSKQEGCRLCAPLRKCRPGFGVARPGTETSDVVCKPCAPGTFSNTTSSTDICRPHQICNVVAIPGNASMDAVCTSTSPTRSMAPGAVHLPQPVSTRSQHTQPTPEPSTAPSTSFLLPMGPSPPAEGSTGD

[14] = biological target: T1, human TNFR2 expressed on cells; test: cell binding on TNFR2-overexpressing (OE) cells
[15] = biological target: T1, human TNFR2 expressed on cells; test: Primary Cell Affinity; binding titration on activated human Tregs, flow cytometry
Procedure: as §1

[16] = biological target: T9, death receptor 6 (DR6) (UniProt O75509 42-349, limits assumed); test: ELISA on coated DR6, OD 650 nm
T9 sequence (looked up): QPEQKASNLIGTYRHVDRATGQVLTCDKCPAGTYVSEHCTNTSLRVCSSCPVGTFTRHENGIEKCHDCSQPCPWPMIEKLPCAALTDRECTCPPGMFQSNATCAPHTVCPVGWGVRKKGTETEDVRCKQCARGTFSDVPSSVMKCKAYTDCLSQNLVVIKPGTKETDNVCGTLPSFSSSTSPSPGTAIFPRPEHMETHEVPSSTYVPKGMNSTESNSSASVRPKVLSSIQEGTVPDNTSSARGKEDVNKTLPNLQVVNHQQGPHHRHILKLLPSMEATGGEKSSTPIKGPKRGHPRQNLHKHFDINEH
Procedure: as §1

B1: humanized antibody h600-25-108 (antibody, V domains shown)
VH: EVQLVESGGGLVQPGGSLRLSCAASGFSLSDYFMTWVRQAPGKGLEWVGIINTGGDSYYATWAKGRFTISRDNSKNTLYLQMNSLRAEDTAVYYCARDTGYGGYDYAGSFDPWGQGTLVTVSS
VL: DIQMTQSPSSVSASVGDRVTITCQASENINSWLAWYQQKPGKAPKLLIYEASKLASGVPSRFSGSGSGTDFTLTISSLQPEDFATYYCQQGYIYIDVGNIFGGGTKVEIK
For B1, the IC50 [1] was 0.198 nM, the EC50 [2] was 0.046 nM and the binding result [3] was “no binding (tested: about 67 nM)”. For the same binder, the IC50 [4] was 1.33 nM, the “EC50 (read off the curve)” value [5] was ~0.1 nM and the EC50 [6] was 0.105 nM. The binding result [7] was “no binding (tested: about 67 nM)”, the binding result [8] was “no binding (tested: about 67 nM)” and the EC50 [9] was 0.31 nM. For the same binder, the “EC50 (read off the curve)” value [10] was ~0.3 nM, the “ADCC EC50 (reporter line)” value [11] was 1.14 nM and the “ADCP EC50” value [11] was 0.92 nM. The binding result [12] was “no binding (tested: about 67 nM)”, the koff [13] was 0.000233 s⁻¹ and the kon [13] was 376000 M⁻¹ s⁻¹. For the same binder, the Kd [14] was 0.0994 nM, the Kd [15] was 0.05 nM and the binding result [16] was “no binding (tested: about 67 nM)”.
